Results published in the RNAGym collection of RNA variant scans (doi:10.7554/elife.80360).

B1: HDV Ribozyme (parent)
chain: GGCCGGCAUGGUCCCAGCCUCCUCGCUGGCGCCGGCUGGGCAACAUUCCGAGGGGACCGUCCCCUCGGUAAUGGCGAAUGGGACCCA

Variants of: B1
Assay: self-cleavage, relative activity (ratio to wild type); higher = more cleavage; co-transcriptional

**Q.** With GGCCGGCAUGGUCCCAGCCUCCUCGCUGGCGCCGGCUGGGCAACAUUCCGAGGGGACCGUCCCCUCGGGAAUGGCGAAUGGGACUCA as the variant, how does the self-cleavage read?
**A.** The self-cleavage was 0.811.

**Q.** For GGCCGGCAUGGUCCCAGCCUCCUCGCUGGCGCCGGCUGGGCAACAUUCCGAGGGGACCGUCCCCUCGGCAAUGGCGAAAGGGACCCA, which self-cleavage is on record?
**A.** Its self-cleavage is 0.684.

**Q.** Which self-cleavage does the source give for GGCCGGCAUGGUCCCAGCCUCCUCGCUGGCGCCGGCUGGGCAACAUUCCGAGGGGACCGUCCCCUCGGCAUUGGCGAAUGGGACCCA here?
**A.** Its self-cleavage is 1.01.

**Q.** With GGCCGGCAUGGUCCCAGCCUCCUCGCUGGCGCCGGCUGGGCAACAUUCCGAGGGGACCGUCCCCUCGGGAAUGGCUAAUGGGACCCA as the variant, how does the self-cleavage read?
**A.** Its self-cleavage is 1.01.

**Q.** For GGCCGGCAUGGUCCCAGCCUCCUCGCUGGCGCCGGCUGGGCAACAUUCCGAGGGGACCGUCCCCUCGGGAAUGGCGAGUGGGACCCA, which self-cleavage is on record?
**A.** Its self-cleavage is 0.569.

**Q.** With GGCCGGCAUGGUCCCAGCCUCCUCGCUGGCGCCGGCUGGGCAACAUUCCGAGGGGACCGUCCCCUCGGCAAUGGCGAAUGGGACCCG as the variant, how does the self-cleavage read?
**A.** Its self-cleavage is 1.1.

**Q.** For GGCCGGCAUGGUCCCAGCCUCCUCGCUGGCGCCGGCUGGGCAACAUUCCGAGGGGACCGUCCCCUCGGGAAUGGCGUAUGGGACCCA, which self-cleavage is on record?
**A.** The self-cleavage was 0.375.

**Q.** With GGCCGGCAUGGUCCCAGCCUCCUCGCUGGCGCCGGCUGGGCAACAUUCCGAGGGGACCGUCCCCUCGGCAAUGGUGAAUGGGACCCA as the variant, how does the self-cleavage read?
**A.** Its self-cleavage is 0.0573.

**Q.** With GGCCGGCAUGGUCCCAGCCUCCUCGCUGGCGCCGGCUGGGCAACAUUCCGAGGGGACCGUCCCCUCGGAAAUGGCGAAUGAGACCCA as the variant, how does the self-cleavage read?
**A.** The self-cleavage was 0.425.

**Q.** For GGCCGGCAUGGUCCCAGCCUCCUCGCUGGCGCCGGCUGGGCAACAUUCCGAGGGGACCGUCCCCUCGGGAAUGGCGAAUGGGACCGA, which self-cleavage is on record?
**A.** The self-cleavage was 0.692.

**Q.** For GGCCGGCAUGGUCCCAGCCUCCUCGCUGGCGCCGGCUGGGCAACAUUCCGAGGGGACCGUCCCCUCGGGAAUGGCGAAUGGGACCAA, which self-cleavage is on record?
**A.** Its self-cleavage is 0.917.

**Q.** Which self-cleavage does the source give for GGCCGGCAUGGUCCCAGCCUCCUCGCUGGCGCCGGCUGGGCAACAUUCCGAGGGGACCGUCCCCUCGGAAAUGGCGAAAGGGACCCA here?
**A.** Its self-cleavage is 0.665.

**Q.** With GGCCGGCAUGGUCCCAGCCUCCUCGCUGGCGCCGGCUGGGCAACAUUCCGAGGGGACCGUCCCCUCGGAAAUGCCGAAUGGGACCCA as the variant, how does the self-cleavage read?
**A.** The self-cleavage was 0.297.

**Q.** With GGCCGGCAUGGUCCCAGCCUCCUCGCUGGCGCCGGCUGGGCAACAUUCCGAGGGGACCGUCCCCUCGGAAAUGACGAAUGGGACCCA as the variant, how does the self-cleavage read?
**A.** The self-cleavage was 0.511.

**Q.** For GGCCGGCAUGGUCCCAGCCUCCUCGCUGGCGCCGGCUGGGCAACAUUCCGAGGGGACCGUCCCCUCGGAAAUGGCGAAUAGGACCCA, which self-cleavage is on record?
**A.** Its self-cleavage is 0.434.

**Q.** For GGCCGGCAUGGUCCCAGCCUCCUCGCUGGCGCCGGCUGGGCAACAUUCCGAGGGGACCGUCCCCUCGGCAAUGGCGAGUGGGACCCA, which self-cleavage is on record?
**A.** Its self-cleavage is 0.831.

**Q.** Which self-cleavage does the source give for GGCCGGCAUGGUCCCAGCCUCCUCGCUGGCGCCGGCUGGGCAACAUUCCGAGGGGACCGUCCCCUCGGGGAUGGCGAAUGGGACCCA here?
**A.** The self-cleavage was 0.767.

**Q.** Which self-cleavage does the source give for GGCCGGCAUGGUCCCAGCCUCCUCGCUGGCGCCGGCUGGGCAACAUUCCGAGGGGACCGUCCCCUCGGGUAUGGCGAAUGGGACCCA here?
**A.** Its self-cleavage is 0.95.

**Q.** Which self-cleavage does the source give for GGCCGGCAUGGUCCCAGCCUCCUCGCUGGCGCCGGCUGGGCAACAUUCCGAGGGGACCGUCCCCUCGGAAAUGGCGAAUGGGACUCA here?
**A.** Its self-cleavage is 0.831.

**Q.** For GGCCGGCAUGGUCCCAGCCUCCUCGCUGGCGCCGGCUGGGCAACAUUCCGAGGGGACCGUCCCCUCGGGAAUGGCGAAUCGGACCCA, which self-cleavage is on record?
**A.** Its self-cleavage is 0.219.

**Q.** For GGCCGGCAUGGUCCCAGCCUCCUCGCUGGCGCCGGCUGGGCAACAUUCCGAGGGGACCGUCCCCUCGGGAGUGGCGAAUGGGACCCA, which self-cleavage is on record?
**A.** Its self-cleavage is 1.16.

**Q.** For GGCCGGCAUGGUCCCAGCCUCCUCGCUGGCGCCGGCUGGGCAACAUUCCGAGGGGACCGUCCCCUCGGCAAUGGCGAAUGGAACCCA, which self-cleavage is on record?
**A.** The self-cleavage was 0.246.

**Q.** With GGCCGGCAUGGUCCCAGCCUCCUCGCUGGCGCCGGCUGGGCAACAUUCCGAGGGGACCGUCCCCUCGGAAAUGGCGAAUGGCACCCA as the variant, how does the self-cleavage read?
**A.** Its self-cleavage is 0.554.

**Q.** For GGCCGGCAUGGUCCCAGCCUCCUCGCUGGCGCCGGCUGGGCAACAUUCCGAGGGGACCGUCCCCUCGGCAAUGGCGAAUGAGACCCA, which self-cleavage is on record?
**A.** Its self-cleavage is 0.323.

**Q.** Which self-cleavage does the source give for GGCCGGCAUGGUCCCAGCCUCCUCGCUGGCGCCGGCUGGGCAACAUUCCGAGGGGACCGUCCCCUCGGCAAUGGCGAAUGGGACCCA here?
**A.** The self-cleavage was 1.02.

**Q.** For GGCCGGCAUGGUCCCAGCCUCCUCGCUGGCGCCGGCUGGGCAACAUUCCGAGGGGACCGUCCCCUCGGGAAUGGCGAAUGGGACCCA, which self-cleavage is on record?
**A.** Its self-cleavage is 0.981.

**Q.** With GGCCGGCAUGGUCCCAGCCUCCUCGCUGGCGCCGGCUGGGCAACAUUCCGAGGGGACCGUCCCCUCGGCAAUGGCGAAUAGGACCCA as the variant, how does the self-cleavage read?
**A.** Its self-cleavage is 0.305.

**Q.** For GGCCGGCAUGGUCCCAGCCUCCUCGCUGGCGCCGGCUGGGCAACAUUCCGAGGGGACCGUCCCCUCGGGAAUGGAGAAUGGGACCCA, which self-cleavage is on record?
**A.** Its self-cleavage is 0.107.

**Q.** For GGCCGGCAUGGUCCCAGCCUCCUCGCUGGCGCCGGCUGGGCAACAUUCCGAGGGGACCGUCCCCUCGGCAAUAGCGAAUGGGACCCA, which self-cleavage is on record?
**A.** The self-cleavage was 0.653.

**Q.** For GGCCGGCAUGGUCCCAGCCUCCUCGCUGGCGCCGGCUGGGCAACAUUCCGAGGGGACCGUCCCCUCGGGAAUGGCGAAUGGGACCCU, which self-cleavage is on record?
**A.** The self-cleavage was 1.06.

**Q.** For GGCCGGCAUGGUCCCAGCCUCCUCGCUGGCGCCGGCUGGGCAACAUUCCGAGGGGACCGUCCCCUCGGCAAUGGCGAAUGGGAACCA, which self-cleavage is on record?
**A.** Its self-cleavage is 1.09.

**Q.** With GGCCGGCAUGGUCCCAGCCUCCUCGCUGGCGCCGGCUGGGCAACAUUCCGAGGGGACCGUCCCCUCGGCAAUGGCGAAUGGGAGCCA as the variant, how does the self-cleavage read?
**A.** The self-cleavage was 0.875.
